Two molecules from US20030031667A1 (CELLDEX RESEARCH, published 2003) can be followed below.

Assay [1] deals with T1, human macrophage mannose receptor (human, UniProt P22897 19-1456).
T1 construct: whole, on cells; In the immunoprecipitations it came from cell lysates; also called human B11 antigen; B11 target antigen
T1 sequence (looked up): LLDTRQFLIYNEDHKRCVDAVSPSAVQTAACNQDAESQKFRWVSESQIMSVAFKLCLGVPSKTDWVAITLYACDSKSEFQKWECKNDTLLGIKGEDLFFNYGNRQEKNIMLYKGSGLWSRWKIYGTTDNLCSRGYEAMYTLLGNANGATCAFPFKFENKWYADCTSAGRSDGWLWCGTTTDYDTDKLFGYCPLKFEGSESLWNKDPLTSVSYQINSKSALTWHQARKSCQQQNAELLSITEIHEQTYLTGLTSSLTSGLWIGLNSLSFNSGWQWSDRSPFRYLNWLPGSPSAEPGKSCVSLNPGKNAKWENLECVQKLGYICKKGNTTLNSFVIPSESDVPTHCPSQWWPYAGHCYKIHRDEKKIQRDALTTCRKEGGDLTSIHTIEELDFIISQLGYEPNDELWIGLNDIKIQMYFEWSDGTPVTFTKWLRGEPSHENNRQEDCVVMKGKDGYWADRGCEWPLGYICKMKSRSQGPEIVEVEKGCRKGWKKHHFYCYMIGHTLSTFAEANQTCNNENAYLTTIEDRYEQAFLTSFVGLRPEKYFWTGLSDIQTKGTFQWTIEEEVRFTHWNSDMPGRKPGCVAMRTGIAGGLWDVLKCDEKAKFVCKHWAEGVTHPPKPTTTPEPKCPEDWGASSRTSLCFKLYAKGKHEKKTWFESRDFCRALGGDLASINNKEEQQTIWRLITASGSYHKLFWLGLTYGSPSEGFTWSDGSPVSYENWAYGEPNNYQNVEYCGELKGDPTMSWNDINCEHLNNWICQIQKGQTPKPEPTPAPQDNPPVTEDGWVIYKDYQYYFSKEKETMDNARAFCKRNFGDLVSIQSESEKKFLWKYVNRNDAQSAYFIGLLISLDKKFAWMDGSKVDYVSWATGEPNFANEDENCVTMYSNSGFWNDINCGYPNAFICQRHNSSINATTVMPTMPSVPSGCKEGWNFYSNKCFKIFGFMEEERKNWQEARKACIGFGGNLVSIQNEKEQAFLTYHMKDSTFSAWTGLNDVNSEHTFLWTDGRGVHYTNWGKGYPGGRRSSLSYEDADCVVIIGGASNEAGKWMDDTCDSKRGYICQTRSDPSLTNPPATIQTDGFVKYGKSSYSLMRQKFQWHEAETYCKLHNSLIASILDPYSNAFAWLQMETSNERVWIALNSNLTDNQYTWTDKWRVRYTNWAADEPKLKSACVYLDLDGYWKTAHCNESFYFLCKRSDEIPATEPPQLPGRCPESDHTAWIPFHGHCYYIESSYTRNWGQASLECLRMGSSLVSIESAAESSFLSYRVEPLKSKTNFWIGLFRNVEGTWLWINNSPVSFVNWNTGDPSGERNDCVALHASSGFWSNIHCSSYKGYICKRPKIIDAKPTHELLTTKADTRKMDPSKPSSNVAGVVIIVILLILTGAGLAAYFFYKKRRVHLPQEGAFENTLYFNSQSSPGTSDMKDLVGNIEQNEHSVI
Put plainly: flow cytometry, hybridoma supernatant on monocyte-derived human dendritic cells. As for the experimental part: The hybridomas secreting human IgG were tested for reactivity with various types of blood cells by flow cytometry. Dendritic cells were prepared from adherent mononuclear cells by culturing for 5-7 days in media supplemented with GM-CSF and IL-4. Granulocytes (PMN), monocytes and lymphocytes were obtained from heparanized whole blood. The cells were incubated with hybridoma supernatants from IgG-positive clones at 4° C. Binding was detected with a FITC-labeled goat anti-human IgG(Fc) probe. The cell associated fluorescence was determined by analysis using a FACScalibur instrument.
On the technique in general: In flow cytometry, cells or beads pass a laser one at a time.

Assay [2] addresses T1, human macrophage mannose receptor. Nature of the assay: flow cytometry on monocyte-derived dendritic cells, anti-human IgG-F(ab')2-PE probe. As for the experimental part: The reactivity of F(ab′)2 fragments of human monoclonal antibody B11 with dendritic cells from human tissues was evaluated by flow cytometry.
F(ab′)2 fragments were prepared by digestion of purified B11 mAb with pepsin under standard conditions. The F(ab′)2 fragments were purified by protein L chromatography. Dendritic cells, prepared fresh from human monocytes by culture in GM-CSF and IL-4, were incubated with whole antibody or F(ab′)2 antibody fragments for 1 hour at 4° C. The cells were washed before incubation with anti-human IgG-F(ab′)2-PE probe for 1 hour at 4° C. The cells were washed again prior to analysis using a FACScalibur instrument and Cellquest software.

B1: human monoclonal antibody B11 (antibody, human IgG1, V domains shown)
VH: EVQLVQSGAEVKKPGESLRISCKGSGDSFTTYWIGWVRQMPGKGLEWMGIIYPGDSDTIYSPSFQGQVTISADKSISTAYLQWSSLKASDTAMYYCTRGDRGVDYWGQGTLVTVSS
VL: DIQMTQSPSSLSASVGDRVTITCRASQGISRWLAWYQQKPEKAPKSLIYAASSLQSGVPSRFSGSGSGTDFTLTISGLQPEDFATYYCQQYNSYPRTFGQGTKVEIK
notes: Human IgG1 kappa from a HuMAb mouse hybridoma; also called B11 HuMab; mAb B11
For B1, in assay [1], the binding result is “binds”.

B2: F(ab')2 fragments of human monoclonal antibody B11 (other)
VH: EVQLVQSGAEVKKPGESLRISCKGSGDSFTTYWIGWVRQMPGKGLEWMGIIYPGDSDTIYSPSFQGQVTISADKSISTAYLQWSSLKASDTAMYYCTRGDRGVDYWGQGTLVTVSS
VL: DIQMTQSPSSLSASVGDRVTITCRASQGISRWLAWYQQKPEKAPKSLIYAASSLQSGVPSRFSGSGSGTDFTLTISGLQPEDFATYYCQQYNSYPRTFGQGTKVEIK
notes: See the note of m1 on the VH/VL conflict; also called B11 F(ab')2
On to B2, for which, in assay [2], the binding result is listed as “binds”.
